From publication PMC10397247
Values belong to the binder of their own block, whether it stands above or below them.

Legend:
Assay in all cases: two-hybrid library CCNG1;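 also: natural log of median RNA to DNA barcode read ratio; higher means stronger binding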
4H2143-bH = target: T1, 4H2143-bH
T1 chain: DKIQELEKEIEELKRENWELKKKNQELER

4H2162-bH = target: T2, 4H2162-bH
T2 chain: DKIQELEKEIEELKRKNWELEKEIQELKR

4H2223-bH = target: T3, 4H2223-bH
T3 chain: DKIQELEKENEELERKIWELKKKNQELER

4H2233-bH = target: T4, 4H2233-bH
T4 chain: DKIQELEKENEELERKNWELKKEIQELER

4H2253-bH = target: T5, 4H2253-bH
T5 chain: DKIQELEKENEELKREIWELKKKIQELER

4H235-bH = target: T6, 4H235-bH
T6 chain: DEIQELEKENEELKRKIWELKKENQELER

4H2438-bH = target: T7, 4H2438-bH
T7 chain: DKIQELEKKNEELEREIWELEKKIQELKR

4H2444-bH = target: T8, 4H2444-bH
T8 chain: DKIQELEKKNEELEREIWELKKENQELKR

4H2473-bH = target: T9, 4H2473-bH
T9 chain: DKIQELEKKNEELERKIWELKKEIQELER

4H2503-bH = target: T10, 4H2503-bH
T10 chain: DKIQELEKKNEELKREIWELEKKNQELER

4H2518-bH = target: T11, 4H2518-bH
T11 chain: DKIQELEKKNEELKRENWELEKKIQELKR

4H2585-bH = target: T12, 4H2585-bH
T12 chain: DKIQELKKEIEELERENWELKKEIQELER

4H2588-bH = target: T13, 4H2588-bH
T13 chain: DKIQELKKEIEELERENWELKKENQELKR

4H264-bH = target: T14, 4H264-bH
T14 chain: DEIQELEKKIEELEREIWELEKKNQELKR

4H2692-bH = target: T15, 4H2692-bH
T15 chain: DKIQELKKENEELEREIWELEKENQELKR

4H2717-bH = target: T16, 4H2717-bH
T16 chain: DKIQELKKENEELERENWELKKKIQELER

4H2760-bH = target: T17, 4H2760-bH
T17 chain: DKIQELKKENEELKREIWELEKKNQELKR

4H2839-bH = target: T18, 4H2839-bH
T18 chain: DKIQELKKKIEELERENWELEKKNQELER

4H2859-bH = target: T19, 4H2859-bH
T19 chain: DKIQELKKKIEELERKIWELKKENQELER

4H2915-bH = target: T20, 4H2915-bH
T20 chain: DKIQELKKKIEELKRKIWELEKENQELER

4H2931-bH = target: T21, 4H2931-bH
T21 chain: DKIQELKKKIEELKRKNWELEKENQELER

4H3041-bH = target: T22, 4H3041-bH
T22 chain: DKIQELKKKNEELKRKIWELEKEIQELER

4H3057-bH = target: T23, 4H3057-bH
T23 chain: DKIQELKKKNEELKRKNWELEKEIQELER

4H319-bH = target: T24, 4H319-bH
T24 chain: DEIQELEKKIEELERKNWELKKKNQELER

4H3277-bH = target: T25, 4H3277-bH
T25 chain: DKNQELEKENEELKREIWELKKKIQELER

4H3297-bH = target: T26, 4H3297-bH
T26 chain: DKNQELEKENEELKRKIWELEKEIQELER

4H3364-bH = target: T27, 4H3364-bH
T27 chain: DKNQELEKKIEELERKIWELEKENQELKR

4H3381-bH = target: T28, 4H3381-bH
T28 chain: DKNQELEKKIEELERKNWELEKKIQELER

4H348-bH = target: T29, 4H348-bH
T29 chain: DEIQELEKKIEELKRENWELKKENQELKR

4H349-bH = target: T30, 4H349-bH
T30 chain: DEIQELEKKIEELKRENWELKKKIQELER

4H40-bH = target: T31, 4H40-bH
T31 chain: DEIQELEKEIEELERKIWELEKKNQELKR

4H4001-bN = target: T32, 4H4001-bN
T32 chain: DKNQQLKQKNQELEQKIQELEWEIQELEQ

4H477-bH = target: T33, 4H477-bH
T33 chain: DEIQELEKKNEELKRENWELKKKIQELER

4H492-bH = target: T34, 4H492-bH
T34 chain: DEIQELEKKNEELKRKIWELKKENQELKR

4H56-bH = target: T35, 4H56-bH
T35 chain: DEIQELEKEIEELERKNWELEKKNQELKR

4H730-bH = target: T36, 4H730-bH
T36 chain: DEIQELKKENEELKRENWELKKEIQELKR

4H741-bH = target: T37, 4H741-bH
T37 chain: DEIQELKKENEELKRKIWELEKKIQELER

4H754-bA = target: T38, 4H754-bA
T38 chain: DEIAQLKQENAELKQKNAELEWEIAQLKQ

4H796-bH = target: T39, 4H796-bH
T39 chain: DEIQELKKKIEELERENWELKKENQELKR

4H932-bH = target: T40, 4H932-bH
T40 chain: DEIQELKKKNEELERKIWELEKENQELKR

4H949-bH = target: T41, 4H949-bH
T41 chain: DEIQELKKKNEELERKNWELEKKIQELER

4H1393-bA = target: T42, 4H1393-bA
T42 chain: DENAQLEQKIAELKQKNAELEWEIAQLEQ

4H1449-bA = target: T43, 4H1449-bA
T43 chain: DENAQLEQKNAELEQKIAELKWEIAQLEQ

4H1629-bA = target: T44, 4H1629-bA
T44 chain: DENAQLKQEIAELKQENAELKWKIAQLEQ

4H1710-bA = target: T45, 4H1710-bA
T45 chain: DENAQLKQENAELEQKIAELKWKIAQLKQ

4H1804-bA = target: T46, 4H1804-bA
T46 chain: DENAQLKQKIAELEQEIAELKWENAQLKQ

4H1985-bA = target: T47, 4H1985-bA
T47 chain: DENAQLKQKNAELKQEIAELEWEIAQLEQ

4H3129-bA = target: T48, 4H3129-bA
T48 chain: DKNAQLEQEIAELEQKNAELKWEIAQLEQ

4H3172-bA = target: T49, 4H3172-bA
T49 chain: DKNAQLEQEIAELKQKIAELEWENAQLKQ

4H3414-bA = target: T50, 4H3414-bA
T50 chain: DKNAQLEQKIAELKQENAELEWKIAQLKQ

4H3631-bA = target: T51, 4H3631-bA
T51 chain: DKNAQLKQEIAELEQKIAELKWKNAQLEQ

4H3638-bA = target: T52, 4H3638-bA
T52 chain: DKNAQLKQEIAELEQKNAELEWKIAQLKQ

4H3817-bA = target: T53, 4H3817-bA
T53 chain: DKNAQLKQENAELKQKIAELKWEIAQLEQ

4H3974-bA = target: T54, 4H3974-bA
T54 chain: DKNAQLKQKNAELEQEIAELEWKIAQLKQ

4H570-bA = target: T55, 4H570-bA
T55 chain: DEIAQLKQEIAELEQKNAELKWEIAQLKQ

4H584-bA = target: T56, 4H584-bA
T56 chain: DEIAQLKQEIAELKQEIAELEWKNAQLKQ

4H619-bA = target: T57, 4H619-bA
T57 chain: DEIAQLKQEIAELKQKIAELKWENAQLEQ

4H850-bA = target: T58, 4H850-bA
T58 chain: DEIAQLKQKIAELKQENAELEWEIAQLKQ

4H906-bA = target: T59, 4H906-bA
T59 chain: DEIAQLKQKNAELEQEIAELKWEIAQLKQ

interaction score (4H2143-bH): 0.693 | interaction score (4H2162-bH): 0.12 | interaction score (4H2223-bH): -0.434 | interaction score (4H2233-bH): 0.334 | interaction score (4H2253-bH): -1.13 | interaction score (4H235-bH): -0.618 | interaction score (4H2438-bH): -0.916 | interaction score (4H2444-bH): -0.824 | interaction score (4H2473-bH): -0.279 | interaction score (4H2503-bH): -1.13 | interaction score (4H2518-bH): 0.15 | interaction score (4H2585-bH): -1.12 | interaction score (4H2588-bH): -0.874 | interaction score (4H264-bH): 0.605 | interaction score (4H2692-bH): -0.348 | interaction score (4H2717-bH): -0.549 | interaction score (4H2760-bH): -0.0706 | interaction score (4H2839-bH): 1.24 | interaction score (4H2859-bH): -0.954 | interaction score (4H2915-bH): -0.577 | interaction score (4H2931-bH): 0.0986 | interaction score (4H3041-bH): -0.203 | interaction score (4H3057-bH): 0.0434 | interaction score (4H319-bH): -1.46 | interaction score (4H3277-bH): -0.719 | interaction score (4H3297-bH): -0.15 | interaction score (4H3364-bH): 0.347 | interaction score (4H3381-bH): 0.106 | interaction score (4H348-bH): 0.059 | interaction score (4H349-bH): -0.148 | interaction score (4H40-bH): 1 | interaction score (4H4001-bN): -1.45 | interaction score (4H477-bH): -0.0383 | interaction score (4H492-bH): -0.638 | interaction score (4H56-bH): 0.127 | interaction score (4H730-bH): -0.835 | interaction score (4H741-bH): 0.515 | interaction score (4H754-bA): -0.871 | interaction score (4H796-bH): -1.45 | interaction score (4H932-bH): -0.164 | interaction score (4H949-bH): -0.954
Binder: DKIQELEKEIEELKRENWELKKKNQELER [4H2143-bH]

interaction score (4H1393-bA): -1.08 | interaction score (4H1449-bA): -1.31 | interaction score (4H1629-bA): -1.57 | interaction score (4H1710-bA): -1.72 | interaction score (4H1804-bA): -1.14 | interaction score (4H1985-bA): -1.7 | interaction score (4H3129-bA): -0.0989 | interaction score (4H3172-bA): -1.3 | interaction score (4H3297-bH): -0.857 | interaction score (4H3414-bA): 0.166 | interaction score (4H3631-bA): -0.847 | interaction score (4H3638-bA): 1.8 | interaction score (4H3817-bA): -1.23 | interaction score (4H3974-bA): -0.626 | interaction score (4H570-bA): -0.941 | interaction score (4H584-bA): -1.22 | interaction score (4H619-bA): -1.63 | interaction score (4H754-bA): -1.58 | interaction score (4H850-bA): -0.951 | interaction score (4H906-bA): -1.12
Binder: DENAQLEQKIAELKQKNAELEWEIAQLEQ [4H1393-bA]
